Results: patent publication US20060257880A1, “Gastric and prostate cancer associated antigens” (THE NOTTINGHAM TRENT UNIVERSITY, priority 2003, published 2006)

Tests used:
[1] = tested on: prostate cancer patients' sera; experiment: Modified SEREX immunoscreening of T21 clone against prostate cancer patients' sera; format: binding, human; set-up: key to Sera reactivity: +: sera reactivity observed; −: no sera reactivity observed
Description: (§1) The SEREX approach allows an unbiased search for an antibody response and the direct molecular definition of immunogenic tumour proteins based on their reactivity with allogeneic patient sera. In this approach, a prokaryotically expressed cDNA library constructed from normal human testes was immunoscreened with absorbed and diluted patients' sera for the detection of tumour antigens that have elicited a high-titer immunoglobulin (Ig) G humoral response. Such a humoral response implies T-cell recognition of the detected antigens by helper T cells. […] The SEREX approach can then be modified and used to determine the reactivity of identified antigens with panels of human sera including prostate cancer patient sera and normal donor sera.
(§2) The reactivity of promising positive clones against patient and normal donor serum was determined by immunoscreening the clones against and allogeneic panel of 10 prostate cancer patients' sera and 10 healthy donor patients' sera. The methodology used was the same as the SEREX methodology (described above) with the following modifications: The positive clone (T21) and a negative clone (blue phage) were plated out on a small LB agar plate at a ratio of 1:2 to give a titre of approximately 600 pfu/plate. The steps for detection of false positives, subcloning and retesting were not necessary. Following expression overnight, plaque expression and transferral of the plaques to nitrocellulose membranes, the nitrocellulose membranes were incubated with the individual serum and colour developed as described previously. The results would then be recorded simply as being positive (plaques visible) or negative (no plaques visible).
(§3) Immune recognition of identified gene products in prostate cancer patients. To assess the frequency of antibody responses against T21 in sera from normal individuals and prostate cancer patients, 10 prostate cancer patient sera and 10 normal adult sera were screened using a modified immunoscreening procedure.

normal individual sera = experiment: Modified SEREX immunoscreening of T21 clone against normal individual sera; format: binding, human; set-up: key to Sera reactivity: +: sera reactivity observed; −: no sera reactivity observed
Description: as §1, §2, §3

B1: T21: SEREX-identified cancer-testis antigen clone; cDNA encodes a putative 535 amino acid protein (SEQ. ID. 3) (protein, listed as Homo sapiens)
chain: MSEAQSKNEIIAQEFLIKEAECRNADIELEHHRSQAEQNEFLSRELIEKERDLERSRTVIAKFQNKLKELVEENKQLEEGMKEILQAIKEMQKDPDVKGGETSLIIPSLERLVNAIESKNAEGIFDASLHLKAQVDQLTGRNEELRQELRESRKEAINYSQQLAKANLKIDHLEKETSLLRQSEGSNVVFKGIDLPDGIAPSSASIINSQNEYLIHLLQELENKEKKLKNLEDSLEDYNRKFAVIRHQQSLLYKEYLSEKETWKTESKTIKEEKRKLEDQVQQDAIKVKEYNNLLNALQMDSDEMKKILAENSRKITVLQVNEKSLIRQYTTLVELERQLRKENEKQKNELLSMEAEVCEKIGCLQRFKEMAIFKIAALQKVVDNSVSLSELELANKQYNELTAKYRDILQKDNMLVQRTSNLEHLECENISLKEQVESINKELEITKEKLHTIEQAWEQETKLGNESSMDKAKKSITNSDIVSISKKITMLEMKELNERQRAEHCQKMYEHLRTSLKQMEERNFELETKFAEV
- Antibody response against T21 in sera (in words) ([1]; 10 prostate cancer patient sera): reacted exclusively with allogeneic sera obtained from prostate cancer patients
- Sera reactivity, reactive sera / sera tested ([1]; panel of 10 prostate cancer patients sera): 4/10
- Sera reactivity ([1]; prostate cancer patient serum 27): +
- Sera reactivity ([1]; prostate cancer patient serum 29): −
- Sera reactivity ([1]; prostate cancer patient serum 32): −
- Sera reactivity ([1]; prostate cancer patient serum 33): −
- Sera reactivity ([1]; prostate cancer patient serum 34): +
- Sera reactivity ([1]; prostate cancer patient serum 36): −
- Sera reactivity ([1]; prostate cancer patient serum 37): −
- Sera reactivity ([1]; prostate cancer patient serum 38): +
- Sera reactivity ([1]; prostate cancer patient serum 39): +
- Sera reactivity ([1]; prostate cancer patient serum 48): −
- Antibody response against T21 in sera (in words) (normal individual sera; 10 normal adult sera): not with sera from healthy individuals
- Sera reactivity (normal individual sera; normal individual serum 1): −
- Sera reactivity (normal individual sera; normal individual serum 2): −
- Sera reactivity (normal individual sera; normal individual serum 3): −
- Sera reactivity (normal individual sera; normal individual serum 5): −
- Sera reactivity (normal individual sera; normal individual serum 12): −
- Sera reactivity (normal individual sera; normal individual serum 13): −
- Sera reactivity (normal individual sera; normal individual serum 14): −
- Sera reactivity (normal individual sera; normal individual serum 19): −
- Sera reactivity (normal individual sera; normal individual serum 20): −
- Sera reactivity (normal individual sera; normal individual serum 21): −
- Sera reactivity, reactive sera / sera tested (normal individual sera; panel of 10 normal donor sera): 0/10
